Reference: US20250215104A1 (WALDEN BIOSCIENCES, published 2025)

Assays:
[1] = target: T1, human soluble urokinase plasminogen activator receptor (suPAR) (human, UniProt Q03405 23-303, limits assumed); test: off-rate (kdis) screen of scFv clones, biosensor (Octet)
T1 construct: Target antigen of the off-rate screen; also called hsuPAR; human suPAR

[2] = target: T2, cynomolgus soluble urokinase plasminogen activator receptor (suPAR) (cynomolgus, UniProt Q9GK78 23-303, limits assumed); test: as above
T2 construct: Target antigen of the off-rate screen; also called cynomolgus uPAR; cynomolgus suPAR
T2 sequence (Q9GK78 23-303 limits assumed): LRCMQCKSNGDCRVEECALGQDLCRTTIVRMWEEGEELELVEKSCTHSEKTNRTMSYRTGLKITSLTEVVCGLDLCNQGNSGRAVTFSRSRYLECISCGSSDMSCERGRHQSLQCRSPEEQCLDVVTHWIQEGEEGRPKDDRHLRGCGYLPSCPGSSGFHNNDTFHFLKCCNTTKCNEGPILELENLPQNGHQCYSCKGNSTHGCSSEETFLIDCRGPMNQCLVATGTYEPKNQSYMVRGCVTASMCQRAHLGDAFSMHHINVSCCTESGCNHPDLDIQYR

T1 sequence (Q03405 23-303 limits assumed): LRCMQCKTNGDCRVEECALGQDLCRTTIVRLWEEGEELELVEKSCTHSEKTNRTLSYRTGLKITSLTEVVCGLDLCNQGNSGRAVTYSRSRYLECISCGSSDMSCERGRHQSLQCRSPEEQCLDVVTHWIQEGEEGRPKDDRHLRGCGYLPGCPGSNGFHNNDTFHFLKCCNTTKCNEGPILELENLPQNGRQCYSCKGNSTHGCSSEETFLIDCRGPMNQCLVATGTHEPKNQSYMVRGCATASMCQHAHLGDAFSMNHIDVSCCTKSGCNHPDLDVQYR

Binder | koff [1] [s⁻¹] | koff [2] [s⁻¹]
suPAR_DB01_C07 (scFv, V domains shown, screened as scFv) VH: QVQLVQSGAEVKKPGASVKVSCKASGYTFTSYYMHWVRQAPGQGLEWMGWIDHENGSTSYDQKFQGRVTMTRDTSTSTVYMELSSLRSEDTAVYYCARGYDVDWFVYWGQGTLVTVSS VL: DIQMTQSPSSLSASVGDRVTITCRARQSVSYMYWYQQKPGKAPKLLIYRTSNLASGVPSRFSGSGSGTDFTLTISSLQPEDFATYYCQQYHSYPPTFGGGTKVEIK | 0.00164 | 2.66e-05
suPAR_DB01_C11 (scFv, V domains shown, screened as scFv) VH: QVQLVQSGAEVKKPGASVKVSCKASGGTFTSYYMHWVRQAPGQGLEWMGWIDPENGSTIYDQKFQGRVTMTRDTSTSTVYMELSSLRSEDTAVYYCARGYDVDWFVYWGQGTLVTVSS VL: DIQMTQSPSSLSASVGDRVTITCSARSSVSYMYWYQQKPGKAPKLLIYRTSNLASGVPSRFSGSGSGTDFTLTISSLQPEDFATYYCQQYHSYPPTFGGGTKVEIK | 0.00226 | 8.96e-05
suPAR_DB01_C08 (scFv, V domains shown, screened as scFv) VH: QVQLVQSGAEVKKPGASVKVSCKASGYTFTGYYMHWVRQAPGQGLEWMGWIDHENGNTIYAQKFQGRVTMTRDTSTSTVYMELSSLRSEDTAVYYCARGYDVDWFVYWGQGTLVTVSS VL: DIQMTQSPSSLSASVGDRVTITCSARSSVSYMYWYQQKPGKAPKLLIYRTSNLASGVPSRFSGSGSGTDFTLTISSLQPEDFATYYCQQYHSYPPTFGGGTKVEIK | 0.0013 | 0.00042
suPAR_DB01_D02 (scFv, V domains shown, screened as scFv) VH: QVQLVQSGAEVKKPGASVKVSCKASGYTFTSYYMHWVRQAPGQGLEWMGWIDPNTGDTNYAQKFQGRVTMTRDTSTSTVYMELSSLRSEDTAVYYCARGYDVDWFVYWGQGTLVTVSS VL: DIQMTQSPSSLSASVGDRVTITCRARSSVSYMYWYQQKPGKAPKLLIYRTSNLASGVPSRFSGSGSGTDFTLTISSLQPEDFATYYCQQYHSYPPTFGGGTKVEIK | 0.00425 | 0.000343

More lines, now with the values ahead:

koff [1] [s⁻¹] | koff [2] [s⁻¹] | Binder
0.000531 | 0.000369 | suPAR_DB01_D01 (scFv, V domains shown, screened as scFv) VH: QVQLVQSGAEVKKPGASVKVSCKASGYTFTGYYMHWVRQAPGQGLEWMGWIDHENGSTIYAQKFQGRVTMTRDTSTSTVYMELSSLRSEDTAVYYCARGYDVDWFVYWGQGTLVTVSS VL: DIQMTQSPSSLSASVGDRVTITCSARSSVSYMYWYQQKPGKAPKLLIYRTSNLASGVPSRFSGSGSGTDFTLTISSLQPEDFATYYCQQYHSYPPTFGGGTKVEIK
0.00493 | 0.000105 | suPAR_DB01_C12 (scFv, V domains shown, screened as scFv) VH: QVQLVQSGAEVKKPGASVKVSCKASGDTFTSYYMHWVRQAPGQGLEWMGWIDHENGNTIYDQKFQGRVTMTRDTSTSTVYMELSSLRSEDTAVYYCARGYDVDWFVYWGQGTLVTVSS VL: DIQMTQSPSSLSASVGDRVTITCSARSSVSYMYWYQQKPGKAPKLLIYRTSNLASGVPSRFSGSGSGTDFTLTISSLQPEDFATYYCQQYHSYPPTFGGGTKVEIK
0.00363 | 0.000266 | suPAR_DB01_C10 (scFv, V domains shown, screened as scFv) VH: QVQLVQSGAEVKKPGASVKVSCKASGYTFTNYYMHWVRQAPGQGLEWMGWIDPENGNTIYAQKFQGRVTMTRDTSTSTVYMELSSLRSEDTAVYYCARGYDVDWFVYWGQGTLVTVSS VL: DIQMTQSPSSLSASVGDRVTITCRARSSISYMYWYQQKPGKAPKLLIYRTSNLASGVPSRFSGSGSGTDFTLTISSLQPEDFATYYCQQYHSYPPTFGGGTKVEIK
0.00476 | 0.000203 | suPAR_DB01_C09 (scFv, V domains shown, screened as scFv) VH: QVQLVQSGAEVKKPGASVKVSCKASGFNIKDYYIHWVRQAPGQGLEWMGWIDPENGNTIYAQKFQGRVTMTRDTSTSTVYMELSSLRSEDTAVYYCARGYDVDWFVYWGQGTLVTVSS VL: DIQMTQSPSSLSASVGDRVTITCSARSSVSYMYWYQQKPGKAPKLLIYRTSNLASGVPSRFSGSGSGTDFTLTISSLQPEDFATYYCQQYHSYPPTFGGGTKVEIK
